B1: 26S proteasome non-ATPase regulatory subunit 11 (Drosophila melanogaster (Fruit fly)), Q7KLV9-1 (parent)
chain: MAGATLFERAQALSSVNREEQDSSLLNKLVRDQEGAENDEERIRIKEQGILQQGELYKQEGKAKELADLIKVTRPFLSSISKAKAAKLVRSLVDMFLDMDAGTGIEVQLCKDCIEWAKQEKRTFLRQSLEARLIALYFDTALYTEALALGAQLLRELKKLDDKNLLVEVQLLESKTYHALSNLPKARAALTSARTTANAIYCPPKVQGALDLQSGILHAADERDFKTAFSYFYEAFEGFDSVDSVKALTSLKYMLLCKIMLGQSDDVNQLVSGKLAITYSGRDIDAMKSVAEASHKRSLADFQAALKEYKKELAEDVIVQAHLGTLYDTMLEQNLCRIIEPYSRVQVAHVAESIQLPMPQVEKKLSQMILDKKFSGILDQGEGVLIVFEETPVDKTYERVLETIQSMGKVVDTLYQKAKKLS
partner: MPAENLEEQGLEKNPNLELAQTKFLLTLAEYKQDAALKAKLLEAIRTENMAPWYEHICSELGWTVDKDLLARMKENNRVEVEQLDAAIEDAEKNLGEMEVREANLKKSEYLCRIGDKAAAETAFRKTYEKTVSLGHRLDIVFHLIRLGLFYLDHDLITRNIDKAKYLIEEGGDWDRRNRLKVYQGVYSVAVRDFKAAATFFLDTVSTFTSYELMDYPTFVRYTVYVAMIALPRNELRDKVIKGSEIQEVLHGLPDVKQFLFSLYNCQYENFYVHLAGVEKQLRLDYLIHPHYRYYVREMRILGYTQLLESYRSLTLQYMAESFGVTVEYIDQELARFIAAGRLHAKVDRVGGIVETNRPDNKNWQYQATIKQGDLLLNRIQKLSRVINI

Variants of: B1
Conditions: with psmd6_drome Rpn7, Q9V3G7

effect of a mutation on the interaction | Variant
disrupting interaction strength | S366K;I369A;L370A
